Consider one protein from patent US10254283.

The target in data set [1] is recombinant Histone H3.1 (New England BioLabs, M2503S).

Chain of Flag-eIF4B (wild type) (chain, as listed by the source): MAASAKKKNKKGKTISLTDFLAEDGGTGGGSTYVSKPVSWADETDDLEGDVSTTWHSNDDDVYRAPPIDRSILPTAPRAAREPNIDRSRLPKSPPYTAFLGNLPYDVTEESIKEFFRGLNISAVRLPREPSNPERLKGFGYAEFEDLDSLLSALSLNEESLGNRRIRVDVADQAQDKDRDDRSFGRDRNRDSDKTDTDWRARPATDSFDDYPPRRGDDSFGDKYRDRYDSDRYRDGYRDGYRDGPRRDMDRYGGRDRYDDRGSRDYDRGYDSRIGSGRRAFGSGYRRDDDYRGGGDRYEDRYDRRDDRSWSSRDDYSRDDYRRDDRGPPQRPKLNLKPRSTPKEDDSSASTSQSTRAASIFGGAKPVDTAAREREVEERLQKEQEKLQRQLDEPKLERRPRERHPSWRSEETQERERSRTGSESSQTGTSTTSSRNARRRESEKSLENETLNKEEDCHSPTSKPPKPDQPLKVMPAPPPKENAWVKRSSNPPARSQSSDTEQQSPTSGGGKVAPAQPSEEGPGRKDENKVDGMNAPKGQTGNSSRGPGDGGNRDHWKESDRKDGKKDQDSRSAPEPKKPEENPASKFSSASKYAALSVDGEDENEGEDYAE
Chain of Flag-eIF4B (S406A) (chain, as listed by the source S406A): as the sequence (chain, as listed by the source) above, with S406A counted along it

B1: recombinant MELK (kinase domain) (protein)
chain: MKDYDELLKYYELHETIGTGGFAKVKLACHILTGEMVAIKIMDKNTLGSDLPRIKTEIEALKNLRHQHICQLYHVLETANKIFMVLEYCPGGELFDYIISQDRLSEEETRVVFRQIVSAVAYVHSQGYAHRDLKPENLLFDEYHKLKLIDFGLCAKPKGNKDYHLQTCCGSLAYAAPELIQGKSYLGSEADVWSMGILLYVLMCGFLPFDDDNVMALYKKIMRGKYDVPKWLSPSSILLLQQMLQVDPKKRISMKNLLNHPWIMQDYNYPVEWQSKNPFIHLDDDCVTELSVHHRNNRQTMEDLISLWQYDHLTATYLLLLAKKARGKPVRLRLSSFSCG
Take B1: the “in vitro kinase assay, phosphorylation of eIF4B at S406 (immunoblot)” value with Flag-eIF4B (S406A) was “This phosphorylation was abolished when wild type (wt) eIF4B was replaced with a mutant eIF4B (S406A)”. The “in vitro kinase assay, phosphorylation of Histone H3 at Thr3, Ser10 and Thr11 (immunoblot)” value in data set [1] was “Thr3, Ser10, and Thr11 of human Histone H3 were readily phosphorylated by the kinase domain of MELK”. In the data set with Flag-eIF4B (wild type), the “in vitro kinase assay, phosphorylation of eIF4B at Ser406 (immunoblot)” value is on record as “Ser406, but not Ser422, of human eIF4B was readily phosphorylated by full-length MELK or the kinase domain of MELK” and the “in vitro kinase assay, phosphorylation of eIF4B at Ser422 (immunoblot)” value was “MELK does not phosphorylates eIF4B at S422 in vitro”.
